From patent US20240116985A1 (published 2024)
Starred links: 1 amine or outer side, 2 acyl side, 3 side chain; linkers in the order of their positions; H or OH if unused. Positions of bridges follow the written chain, without caps; N, C: chain ends. Non-standard residues stand in square brackets, D forms with d. Primed or numbered codes have the meaning given here. PyrS2″ = (S)-3-amino-1-((pent-4-en-1-yloxy)carbonyl)pyrrolidine-3-carboxylic acid (stapling residue), C=CCCCOC(=O)N1CC[C@@](N[*:1])(C(=O)[*:2])C1; MePpzAsn = (S)-2-amino-4-(4-methylpiperazin-1-yl)-4-oxobutanoic acid, CN1CCN(C(=O)C[C@H](N[*:1])C(=O)[*:2])CC1; F2PipNva = (S)-2-amino-5-(4,4-difluoropiperidin-1-yl)pentanoic acid, O=C([C@H](CCCN1CCC(F)(F)CC1)N[*:1])[*:2]; MorphAsn = (S)-2-amino-4-morpholino-4-oxobutanoic acid, O=C(C[C@H](N[*:1])C(=O)[*:2])N1CCOCC1; B5(3) = 2,2-bis(4-pentenyl)glycine (stitching residue), C=CCCCC(CCCC=C)(N[*:1])C(=O)[*:2]; B5 = 2-amino-2-(pent-4-en-1-yl)hept-6-enoic acid, C=CCCCC(CCCC=C)(N[*:1])C(=O)[*:2]; Phe(4-(3-Py)) = N[C@@H](Cc1ccc(-c2cccnc2)cc1)C(=O)O; Nva(5-morpholino) = N[C@@H](CCCN1CCOCC1)C(=O)O; Ala(4-thiazolyl) = N[C@@H](Cc1cscn1)C(=O)O; Phe(2-Cl) = N[C@@H](Cc1ccccc1Cl)C(=O)O; Phe(2-OMe) = COc1ccccc1C[C@H](N)C(=O)O; 1Nal = N[C@@H](Cc1cccc2ccccc12)C(=O)O; 2Nal = N[C@@H](Cc1ccc2ccccc2c1)C(=O)O; Phe(2-F) = N[C@@H](Cc1ccccc1F)C(=O)O; Bta = N[C@@H](Cc1csc2ccccc12)C(=O)O; αAllylPro = C=CC[C@@]1(C(=O)O)CCCN1; tBuAla = CC(C)(C)C[C@H](N)C(=O)O; 3Thi = N[C@@H](Cc1ccsc1)C(=O)O; Cha = N[C@@H](CC1CCCCC1)C(=O)O; S8 = C=CCCCCCC[C@](C)(N)C(=O)O

T1: B-cat-Halo (beta-catenin HaloTag fusion expressed in HEK293 cells) (UniProt P35222 1-781, HaloTag labelled with HaloTag NanoBRET 618 Ligand)
T1 sequence (looked up): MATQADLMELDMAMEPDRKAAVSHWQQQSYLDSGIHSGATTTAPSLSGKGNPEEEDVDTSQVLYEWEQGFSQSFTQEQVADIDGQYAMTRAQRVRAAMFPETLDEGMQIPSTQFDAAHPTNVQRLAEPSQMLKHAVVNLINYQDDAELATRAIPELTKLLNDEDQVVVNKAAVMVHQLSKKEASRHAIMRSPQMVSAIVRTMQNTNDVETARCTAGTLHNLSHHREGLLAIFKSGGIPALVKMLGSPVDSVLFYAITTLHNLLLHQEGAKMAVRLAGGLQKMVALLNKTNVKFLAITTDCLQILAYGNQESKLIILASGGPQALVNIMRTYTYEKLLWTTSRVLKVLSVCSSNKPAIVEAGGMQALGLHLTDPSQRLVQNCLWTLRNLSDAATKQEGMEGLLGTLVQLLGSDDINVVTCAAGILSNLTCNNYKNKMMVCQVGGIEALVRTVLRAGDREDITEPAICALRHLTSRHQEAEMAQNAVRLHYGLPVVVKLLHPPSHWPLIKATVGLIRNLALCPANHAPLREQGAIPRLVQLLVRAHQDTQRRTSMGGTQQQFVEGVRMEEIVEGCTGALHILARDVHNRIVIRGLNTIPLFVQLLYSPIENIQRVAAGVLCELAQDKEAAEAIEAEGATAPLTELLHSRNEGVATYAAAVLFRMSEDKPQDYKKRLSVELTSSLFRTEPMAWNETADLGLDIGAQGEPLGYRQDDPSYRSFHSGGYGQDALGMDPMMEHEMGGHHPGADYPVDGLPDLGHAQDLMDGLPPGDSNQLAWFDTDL

T2: B-cat-Halo (beta-catenin HaloTag fusion construct expressed in HEK293 cells) (UniProt P35222 1-781)
T2 sequence (looked up): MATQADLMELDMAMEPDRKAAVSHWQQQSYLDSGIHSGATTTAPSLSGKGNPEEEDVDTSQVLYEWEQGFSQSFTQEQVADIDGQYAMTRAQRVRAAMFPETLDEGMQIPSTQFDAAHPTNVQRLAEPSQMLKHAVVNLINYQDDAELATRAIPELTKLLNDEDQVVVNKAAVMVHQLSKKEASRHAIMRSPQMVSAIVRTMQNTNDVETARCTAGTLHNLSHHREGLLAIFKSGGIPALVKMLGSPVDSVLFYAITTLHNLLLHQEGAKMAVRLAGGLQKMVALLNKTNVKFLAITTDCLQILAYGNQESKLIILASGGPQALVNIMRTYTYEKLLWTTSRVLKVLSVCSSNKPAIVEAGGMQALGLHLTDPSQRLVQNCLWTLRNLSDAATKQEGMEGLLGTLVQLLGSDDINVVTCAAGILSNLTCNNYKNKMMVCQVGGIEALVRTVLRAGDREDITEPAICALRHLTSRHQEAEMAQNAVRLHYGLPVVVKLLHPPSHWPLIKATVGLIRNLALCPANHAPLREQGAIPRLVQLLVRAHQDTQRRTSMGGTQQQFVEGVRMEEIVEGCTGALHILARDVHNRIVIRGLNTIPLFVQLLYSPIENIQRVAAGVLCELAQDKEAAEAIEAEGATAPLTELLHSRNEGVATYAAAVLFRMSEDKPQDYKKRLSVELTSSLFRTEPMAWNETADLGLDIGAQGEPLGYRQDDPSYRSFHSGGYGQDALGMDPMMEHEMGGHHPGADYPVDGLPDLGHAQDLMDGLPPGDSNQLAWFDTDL

T3: B-cat-Halo (beta-catenin HaloTag construct expressed in HEK293 cells) (UniProt P35222 1-781)
T3 sequence (looked up): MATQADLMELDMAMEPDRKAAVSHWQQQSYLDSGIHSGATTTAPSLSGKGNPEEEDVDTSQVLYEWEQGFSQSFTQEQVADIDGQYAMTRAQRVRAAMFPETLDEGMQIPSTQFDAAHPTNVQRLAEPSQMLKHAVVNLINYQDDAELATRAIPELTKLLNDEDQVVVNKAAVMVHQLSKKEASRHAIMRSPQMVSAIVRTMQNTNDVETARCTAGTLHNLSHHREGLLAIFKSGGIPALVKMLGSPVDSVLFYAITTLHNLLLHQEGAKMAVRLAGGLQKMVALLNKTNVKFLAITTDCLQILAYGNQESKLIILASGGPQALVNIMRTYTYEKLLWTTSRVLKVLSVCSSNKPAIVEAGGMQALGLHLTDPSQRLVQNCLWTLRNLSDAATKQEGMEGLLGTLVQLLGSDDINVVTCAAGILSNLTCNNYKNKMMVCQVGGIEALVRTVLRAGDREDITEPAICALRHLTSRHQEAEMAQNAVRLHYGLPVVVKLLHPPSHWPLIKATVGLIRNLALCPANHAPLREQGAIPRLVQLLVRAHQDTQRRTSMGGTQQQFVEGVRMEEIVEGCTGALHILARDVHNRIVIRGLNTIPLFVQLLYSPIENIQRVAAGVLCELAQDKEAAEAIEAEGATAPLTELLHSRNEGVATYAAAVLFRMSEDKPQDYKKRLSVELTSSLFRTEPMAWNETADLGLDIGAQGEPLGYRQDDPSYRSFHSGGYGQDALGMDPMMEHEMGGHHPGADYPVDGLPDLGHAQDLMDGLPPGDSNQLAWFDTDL


Tests used:
Test in all cases: cell-based or functional assay
[1] = target: T1, B-cat-Halo (beta-catenin HaloTag fusion …)
[2] = target: T2, B-cat-Halo (beta-catenin HaloTag fusion …)
[3] = target: T3, B-cat-Halo (beta-catenin HaloTag …)

Binder	NanoBRET Abs IC50 [2]	further results
Ac-[αAllylPro]D[tBuAla][B5(3)]DDAAF[F2PipNva][PyrS2″][3Thi][Bta]Q-NH2 (staple 1-4, 4-11) [I-1486]	–	NanoBRET Abs IC50 [1]: 17.9 µM
Ac-[αAllylPro]D[tBuAla][B5(3)]DDAAFS[PyrS2″][Phe(2-OMe)][Bta]S-NH2 (staple 1-4, 4-11) [I-1103]	16.7 µM	–
Ac-[αAllylPro]D[tBuAla][B5(3)]DDAAFF[PyrS2″][3Thi][Bta]Q-NH2 (staple 1-4, 4-11) [I-807]	–	NanoBRET Abs IC50 [3]: 3.2 µM
Ac-[αAllylPro]D[tBuAla][B5(3)]DEAAFL[S8][Phe(2-Cl)][Bta]Q-NH2 (staple 1-4, 4-11) [I-1096]	8.6 µM	–
Ac-[αAllylPro]D[2Nal][B5(3)]DDAAFS[PyrS2″][Phe(2-Cl)][Bta]Q-NH2 (staple 1-4, 4-11) [I-1109]	> 20 µM	–
Ac-[αAllylPro]D[tBuAla][B5(3)]DDAA[Cha]S[PyrS2″]F[Bta]S-NH2 (staple 1-4, 4-11) [I-1105]	> 20 µM	–
Ac-[αAllylPro]D[tBuAla][B5(3)]DDAAFS[PyrS2″]F[Bta]S-NH2 (staple 1-4, 4-11) [I-1099]	9 µM	–
Ac-[αAllylPro]D[tBuAla][B5(3)]DDAAFL[PyrS2″][3Thi][Bta]N-NH2 (staple 1-4, 4-11) [I-1492]	–	NanoBRET Abs IC50 [1]: 7.3 µM
Ac-[αAllylPro]D[tBuAla][B5(3)]DDAAFT[PyrS2″][3Thi][Bta]H-NH2 (staple 1-4, 4-11) [I-810]	–	NanoBRET Abs IC50 [3]: 18 µM
Ac-[αAllylPro]D[tBuAla][B5(3)]DDAAFN[PyrS2″][Ala(4-thiazolyl)][Bta]Q-NH2 (staple 1-4, 4-11) [I-811]	–	NanoBRET Abs IC50 [3]: > 20 µM
Ac-[αAllylPro]D[tBuAla][B5(3)]DDAAF[MePpzAsn][PyrS2″][3Thi][Bta]Q-NH2 (staple 1-4, 4-11) [I-1488]	–	NanoBRET Abs IC50 [1]: 30.3 µM
Ac-[αAllylPro]D[tBuAla][B5(3)]DDAAFS[PyrS2″][Phe(2-F)][Bta]S-NH2 (staple 1-4, 4-11) [I-1101]	27 µM	–
Ac-[αAllylPro]D[1Nal][B5(3)]DDAAFL[PyrS2″][Phe(2-Cl)][Bta]Q-NH2 (staple 1-4, 4-11) [I-1110]	> 20 µM	–
Ac-[αAllylPro]D[tBuAla][B5(3)]DD[Phe(4-(3-Py))]AFL[PyrS2″]F[Bta]Q-NH2 (staple 1-4, 4-11) [I-1489]	–	NanoBRET Abs IC50 [1]: 9.2 µM
Ac-[αAllylPro]D[tBuAla][B5(3)]DDAA[Ala(4-thiazolyl)]N[PyrS2″][3Thi][Bta]Q-NH2 (staple 1-4, 4-11) [I-812]	–	NanoBRET Abs IC50 [3]: 48.6 µM
Ac-[αAllylPro]D[tBuAla][B5]DDAAFN[PyrS2″][3Thi][Bta]N-NH2 (staple 1-4, 4-11) [I-816]	–	NanoBRET Abs IC50 [3]: 13.7 µM
Ac-[αAllylPro]D[tBuAla][B5(3)]DD[MePpzAsn]AFL[PyrS2″][3Thi][Bta]Q-NH2 (staple 1-4, 4-11) [I-1484]	–	NanoBRET Abs IC50 [1]: > 20 µM
Ac-[αAllylPro]D[tBuAla][B5(3)]DDAAFS[PyrS2″][Cha][Bta]S-NH2 (staple 1-4, 4-11) [I-1106]	> 20 µM	–
Ac-[αAllylPro]D[tBuAla][B5]DDAAFN[PyrS2″][3Thi][Bta][dH]-NH2 (staple 1-4, 4-11) [I-813]	–	NanoBRET Abs IC50 [3]: 20.9 µM
Ac-[αAllylPro]D[tBuAla][B5(3)]DDAAF[Nva(5-morpholino)][PyrS2″][3Thi][Bta]Q-NH2 (staple 1-4, 4-11) [I-1485]	–	NanoBRET Abs IC50 [1]: 25.8 µM
Ac-[αAllylPro]D[tBuAla][B5(3)]DDAAF[MorphAsn][PyrS2″][3Thi][Bta]Q-NH2 (staple 1-4, 4-11) [I-1487]	–	NanoBRET Abs IC50 [1]: 21.5 µM
Ac-[αAllylPro]D[Cha][B5(3)]DDAAFS[PyrS2″]F[Bta]S-NH2 (staple 1-4, 4-11) [I-1100]	24.3 µM	–
Ac-[αAllylPro]D[tBuAla][B5(3)]DDAAFF[PyrS2″][3Thi][Bta]H-NH2 (staple 1-4, 4-11) [I-808]	–	NanoBRET Abs IC50 [3]: 4.4 µM
Ac-[αAllylPro]D[Cha][B5(3)]DDAAF[Cha][PyrS2″][Phe(2-Cl)][Bta]Q-NH2 (staple 1-4, 4-11) [I-1107]	11.8 µM	–

Continued, in another order:

NanoBRET Abs IC50 [2]	Binder	further results
> 20 µM	Ac-[αAllylPro]D[tBuAla][B5(3)]DDAAFL[S8][Phe(2-Cl)][Bta]Q-NH2 (staple 1-4, 4-11) [I-1095]	–
> 20 µM	Ac-[αAllylPro]D[1Nal][B5(3)]DDAAFS[PyrS2″][Phe(2-Cl)][Bta]Q-NH2 (staple 1-4, 4-11) [I-1108]	–
> 20 µM	Ac-[αAllylPro]D[1Nal][B5(3)]DDAAFT[PyrS2″][Phe(2-Cl)][Bta]S-NH2 (staple 1-4, 4-11) [I-1114]	–
27.2 µM	Ac-[αAllylPro]D[Cha][B5(3)]DDAAFS[PyrS2″][Phe(2-F)][Bta]S-NH2 (staple 1-4, 4-11) [I-1102]	–
17.7 µM	Ac-[αAllylPro]D[Cha][B5(3)]DDAAFS[PyrS2″][Phe(2-OMe)][Bta]S-NH2 (staple 1-4, 4-11) [I-1104]	–
> 20 µM	Ac-[αAllylPro]D[2Nal][B5(3)]DDAAFL[PyrS2″][2C1F][Bta]Q-NH2 (staple 1-4, 4-11) [I-1111]	–
> 20 µM	Ac-[αAllylPro]D[tBuAla][B5(3)]DDAAFL[S8][Phe(2-Cl)][Bta][dT]-NH2 (staple 1-4, 4-11) [I-1097]	–
